{"source": "patent US20210316003A1", "about": "(Immunomedics, Inc., priority 2020, published 2021)", "key": {"[1]": {"tested_on": "patients with diverse metastatic cancers", "settings": "human, in vivo", "quoted_text": "In the Phase I and the expansion phases, there are now 48 pts (excluding PDC) who are assessable by RECIST/CT for best response."}, "patients with mSCLC [2]": {"tested_on": "patients with mSCLC", "settings": "53 mSCLC patients (Gray et al., 2017); cited from earlier work"}, "[3]": {"tested_on": "patients with metastatic TNBC", "test": "Phase I/II trial (NCT01631552), metastatic TNBC: adverse events", "type": "in vivo, human", "settings": "N = 108", "text": "(§1) Patients with relapsed/refractory TNBC who had previously failed at at least one prior line of therapy were enrolled in a single-arm, multicenter trial (Bardia et al., 2019, N Engl J Med 380:741-51). The present study reports on 108 patients who had failed at least two prior lines of therapy (median three prior therapies) (Bardia et al., 2019, N Engl J Med 380:741-51). […] For severe treatment-related adverse events, a 25% dose reduction was allowed after the first occurrence, 50% after the second and discontinuation after the third. Of the 108 patients, 107 were female and 1 was male, with a median age of 55. Prior therapies included treatment with taxanes (98%), anthracyclines (86%), platinum agents (69%), gemcitabine (55%), eribulin (45%) and checkpoint inhibitors (17%). Tumor staging was performed by computed tomography (CT) and MRI at baseline, followed up at 8 week intervals from the start of treatment until disease progression."}, "[4]": {"tested_on": "patients with metastatic TNBC", "test": "Phase I/II trial (NCT01631552), metastatic TNBC: efficacy by RECIST 1.1", "type": "in vivo, human", "text": "as §1"}, "[5]": {"tested_on": "patients with metastatic urothelial cancer (mUC)", "settings": "10 mg/kg, cited from earlier work"}, "[6]": {"tested_on": "patients with non-small cell lung cancer (NSCLC)", "settings": "cited from earlier work"}, "patients with mSCLC [7]": {"tested_on": "patients with mSCLC", "test": "Phase I/II trial (NCT01631552), mSCLC: safety and tolerability", "settings": "N = 53", "experimental": "Doses of 8 or 10 mg/kg were given on days 1 and 8 of a 21-day cycle, with contingencies to delay (maximum of 2 weeks). Toxicities were managed by supportive hematopoietic growth-factor therapy for blood cell reduction, dose delays and/or modification as specified in the protocol (e.g., 25% of prior dose), or by standard medical practice. Treatment was continued until disease progression, initiation of alternative anticancer therapy, unacceptable toxicity, or withdrawal of consent.\nSafety evaluations were conducted during scheduled visits or more frequently if warranted.\nStatistical Analyses—The data included in the analyses were derived from patients enrolled from November 2013 to June 2016, with follow-up through Jan. […] The frequency and severity of adverse events (AEs) were defined by MedDRA Preferred Term and System Organ Class (SOC) version 10, with severity assessed by NCI-CTCAE v4.03."}, "[8]": {"tested_on": "patients with diverse metastatic cancers", "test": "Phase I trial and phase II extension in diverse epithelial cancers: related adverse events (CTCAE v 4.0)", "type": "in vivo, human"}, "[9]": {"test": "In vivo animal studies: release of SN-38 from the conjugate", "text": "Plasma CEA and CA19-9 correlated with responses."}}}
{"substance": "sacituzumab govitecan", "values": [{"measurement": "Anti-hRS7 or anti-SN-38 antibodies", "setting": "[1]", "value": "No anti-hRS7 or anti-SN-38 antibodies were detected"}, {"measurement": "Median OS", "setting": "patients with mSCLC [2]", "value": 7.5, "unit": "months"}, {"measurement": "Median PFS", "setting": "patients with mSCLC [2]", "value": 3.7, "unit": "months"}, {"measurement": "Median response duration", "setting": "patients with mSCLC [2]", "value": 5.7, "unit": "months"}, {"measurement": "ORR", "setting": "patients with mSCLC [2]", "value": 14, "unit": "%"}, {"measurement": "Patients with tumor shrinkage from baseline", "setting": "patients with mSCLC [2]", "value": "Sixty"}, {"measurement": "Anemia, % of patients", "setting": "[3]", "value": 50, "unit": "%"}, {"measurement": "Anemia, grade 3", "setting": "[3]", "value": 11, "unit": "%"}, {"measurement": "Decreased white blood cell count, grade 4", "setting": "[3]", "value": 3, "unit": "%"}, {"measurement": "Diarrhea, % of patients", "setting": "[3]", "value": 62, "unit": "%"}, {"measurement": "Diarrhea, grade 3", "setting": "[3]", "value": 8, "unit": "%"}, {"measurement": "Fatigue, % of patients", "setting": "[3]", "value": 55, "unit": "%"}, {"measurement": "Fatigue, grade 3", "setting": "[3]", "value": 8, "unit": "%"}, {"measurement": "Hyperglycemia, grade 4", "setting": "[3]", "value": 1, "unit": "%"}, {"measurement": "Nausea, % of patients", "setting": "[3]", "value": 67, "unit": "%"}, {"measurement": "Nausea, grade 3", "setting": "[3]", "value": 6, "unit": "%"}, {"measurement": "Neutropenia, % of patients", "setting": "[3]", "value": 64, "unit": "%"}, {"measurement": "Neutropenia, grade 3", "setting": "[3]", "value": 26, "unit": "%"}, {"measurement": "Neutropenia, grade 4", "setting": "[3]", "value": 16, "unit": "%"}, {"measurement": "Vomiting, % of patients", "setting": "[3]", "value": 49, "unit": "%"}, {"measurement": "Vomiting, grade 3", "setting": "[3]", "value": 6, "unit": "%"}, {"measurement": "Response rate among patients who had failed previous checkpoint inhibitor therapy", "setting": "[4]", "value": 44, "unit": "%"}, {"measurement": "Complete responses (CR)", "setting": "[4]; 10 mg/kg, N = 108", "value": 2.8, "unit": "%"}, {"measurement": "Median overall survival", "setting": "[4]; 10 mg/kg, N = 108", "value": 13.0, "unit": "months"}, {"measurement": "Median progression-free survival", "setting": "[4]; 10 mg/kg, N = 108", "value": 5.5, "unit": "months"}, {"measurement": "Estimated probability that a patient would exhibit a response at 6 months", "setting": "[4]; 36 responders", "value": 59.7, "unit": "%"}, {"measurement": "Estimated probability that a patient would exhibit a response at 12 months", "setting": "[4]; 36 responders", "value": 27.0, "unit": "%"}, {"measurement": "Median duration of response", "setting": "[4]; 36 responders", "value": 7.7, "unit": "months"}, {"measurement": "Median time to response", "setting": "[4]; 36 responders", "value": 2.0, "unit": "months"}, {"measurement": "Patients with long-term responses of more than 12 months", "setting": "[4]; at data cutoff", "value": 6}, {"measurement": "Response rate (CR+PR)", "setting": "[4]; ≥2 prior lines, 10 mg/kg days 1 and 8 of 21 day cycle, N = 108", "value": 33.3, "unit": "%"}, {"measurement": "Complete responses (CR), number", "setting": "[5]; 35 mUC patients", "value": 2}, {"measurement": "Confirmed partial responses (PR), number", "setting": "[5]; 35 mUC patients", "value": 6}, {"measurement": "Objective response rate (ORR)", "setting": "[5]; 35 mUC patients", "value": 29, "unit": "%"}, {"measurement": "PR pending confirmation, number", "setting": "[5]; 35 mUC patients", "value": 2}, {"measurement": "Treated patients with a reduction in tumor size", "setting": "[5]; 35 mUC patients", "value": "Seventy-four"}, {"measurement": "ORR in patients with liver metastases", "setting": "[5]; mUC", "value": 25, "unit": "%"}, {"measurement": "ORR", "setting": "[6]; 47 response assessable patients, median of three prior therapies", "value": 19, "unit": "%"}, {"measurement": "Clinical benefit rate", "setting": "[6]; 47 response assessable patients", "value": 43, "unit": "%"}, {"measurement": "Median OS", "setting": "[6]", "value": 9.5, "unit": "months"}, {"measurement": "Median PFS", "setting": "[6]", "value": 5.2, "unit": "months"}, {"measurement": "Treatment-related deaths", "setting": "patients with mSCLC [7]", "value": "No treatment-related deaths were observed"}, {"measurement": "Diarrhea ≥G3", "setting": "[8]; 49 pts reporting related AE", "value": 9, "unit": "%"}, {"measurement": "Fatigue ≥G3", "setting": "[8]; 49 pts reporting related AE", "value": 9, "unit": "%"}, {"measurement": "Nausea ≥G3", "setting": "[8]; 49 pts reporting related AE", "value": 0, "unit": "%"}, {"measurement": "Neutropenia ≥G3", "setting": "[8]; 49 pts reporting related AE", "value": 28, "unit": "%"}, {"measurement": "Vomiting ≥G3", "setting": "[8]; 49 pts reporting related AE", "value": 2, "unit": "%"}, {"measurement": "Abdominal pain, Grade 3, patients", "setting": "[8]; related AE, N = 47", "value": 0}, {"measurement": "Abdominal pain, Grade 4, patients", "setting": "[8]; related AE, N = 47", "value": 0}, {"measurement": "Abdominal pain, TOTAL", "setting": "[8]; related AE, N = 47", "value": 11, "unit": "%"}, {"measurement": "Alopecia, TOTAL", "setting": "[8]; related AE, N = 47", "value": 40, "unit": "%"}, {"measurement": "Anemia, Grade 3, %", "setting": "[8]; related AE, N = 47", "value": "(4%)"}, {"measurement": "Anemia, Grade 3, patients", "setting": "[8]; related AE, N = 47", "value": 2}, {"measurement": "Anemia, Grade 4, patients", "setting": "[8]; related AE, N = 47", "value": 0}, {"measurement": "Anemia, TOTAL", "setting": "[8]; related AE, N = 47", "value": 13, "unit": "%"}, {"measurement": "Deep vein thrombosis, Grade 3, %", "setting": "[8]; related AE, N = 47", "value": "(2%)"}, {"measurement": "Deep vein thrombosis, Grade 3, patients", "setting": "[8]; related AE, N = 47", "value": 1}, {"measurement": "Deep vein thrombosis, Grade 4, patients", "setting": "[8]; related AE, N = 47", "value": 0}, {"measurement": "Deep vein thrombosis, TOTAL", "setting": "[8]; related AE, N = 47", "value": 2, "unit": "%"}, {"measurement": "Diarrhea, Grade 3, %", "setting": "[8]; related AE, N = 47", "value": "(9%)"}, {"measurement": "Diarrhea, Grade 3, patients", "setting": "[8]; related AE, N = 47", "value": 4}, {"measurement": "Diarrhea, Grade 4, patients", "setting": "[8]; related AE, N = 47", "value": 0}, {"measurement": "Diarrhea, TOTAL", "setting": "[8]; related AE, N = 47", "value": 47, "unit": "%"}, {"measurement": "Dysgeusia, Grade 3, patients", "setting": "[8]; related AE, N = 47", "value": 0}, {"measurement": "Dysgeusia, Grade 4, patients", "setting": "[8]; related AE, N = 47", "value": 0}, {"measurement": "Dysgeusia, TOTAL", "setting": "[8]; related AE, N = 47", "value": 15, "unit": "%"}, {"measurement": "Fatigue, Grade 3, %", "setting": "[8]; related AE, N = 47", "value": "(9%)"}, {"measurement": "Fatigue, Grade 3, patients", "setting": "[8]; related AE, N = 47", "value": 4}, {"measurement": "Fatigue, Grade 4, patients", "setting": "[8]; related AE, N = 47", "value": 0}, {"measurement": "Fatigue, TOTAL", "setting": "[8]; related AE, N = 47", "value": 55, "unit": "%"}, {"measurement": "Febrile Neutropenia, Grade 3, %", "setting": "[8]; related AE, N = 47", "value": "(2%)"}, {"measurement": "Febrile Neutropenia, Grade 3, patients", "setting": "[8]; related AE, N = 47", "value": 1}, {"measurement": "Febrile Neutropenia, Grade 4, %", "setting": "[8]; related AE, N = 47", "value": 4, "unit": "%"}, {"measurement": "Febrile Neutropenia, Grade 4, patients", "setting": "[8]; related AE, N = 47", "value": 2}, {"measurement": "Febrile Neutropenia, TOTAL", "setting": "[8]; related AE, N = 47", "value": 6, "unit": "%"}, {"measurement": "Hypokalemia, Grade 3, %", "setting": "[8]; related AE, N = 47", "value": "(2%)"}, {"measurement": "Hypokalemia, Grade 3, patients", "setting": "[8]; related AE, N = 47", "value": 1}, {"measurement": "Hypokalemia, Grade 4, patients", "setting": "[8]; related AE, N = 47", "value": 0}, {"measurement": "Hypokalemia, TOTAL", "setting": "[8]; related AE, N = 47", "value": 11, "unit": "%"}, {"measurement": "Nausea, Grade 3, patients", "setting": "[8]; related AE, N = 47", "value": 0}, {"measurement": "Nausea, Grade 4, patients", "setting": "[8]; related AE, N = 47", "value": 0}, {"measurement": "Nausea, TOTAL", "setting": "[8]; related AE, N = 47", "value": 53, "unit": "%"}, {"measurement": "Neutropenia, Grade 3, %", "setting": "[8]; related AE, N = 47", "value": "(24%)"}, {"measurement": "Neutropenia, Grade 3, patients", "setting": "[8]; related AE, N = 47", "value": 11}, {"measurement": "Neutropenia, Grade 4, %", "setting": "[8]; related AE, N = 47", "value": 4, "unit": "%"}, {"measurement": "Neutropenia, Grade 4, patients", "setting": "[8]; related AE, N = 47", "value": 2}, {"measurement": "Neutropenia, TOTAL", "setting": "[8]; related AE, N = 47", "value": 43, "unit": "%"}, {"measurement": "Pyrexia, Grade 3, patients", "setting": "[8]; related AE, N = 47", "value": 0}, {"measurement": "Pyrexia, Grade 4, patients", "setting": "[8]; related AE, N = 47", "value": 0}, {"measurement": "Pyrexia, TOTAL", "setting": "[8]; related AE, N = 47", "value": 13, "unit": "%"}, {"measurement": "Vomiting, Grade 3, %", "setting": "[8]; related AE, N = 47", "value": "(2%)"}, {"measurement": "Vomiting, Grade 3, patients", "setting": "[8]; related AE, N = 47", "value": 1}, {"measurement": "Vomiting, Grade 4, patients", "setting": "[8]; related AE, N = 47", "value": 0}, {"measurement": "Vomiting, TOTAL", "setting": "[8]; related AE, N = 47", "value": 32, "unit": "%"}, {"measurement": "WBC Decrease, Grade 3, %", "setting": "[8]; related AE, N = 47", "value": "(2%)"}, {"measurement": "WBC Decrease, Grade 3, patients", "setting": "[8]; related AE, N = 47", "value": 1}, {"measurement": "WBC Decrease, Grade 4, patients", "setting": "[8]; related AE, N = 47", "value": 0}, {"measurement": "WBC Decrease, TOTAL", "setting": "[8]; related AE, N = 47", "value": 6, "unit": "%"}, {"measurement": "SN-38 released from the conjugate daily", "setting": "[9]", "value": 50, "unit": "%"}]}
